Test results taken from paper PMC10980349 (The Plant Cell, 2023).
One block for each binder: values may come before it.

What was measured:
[1] = target: microtubules assembled from porcine tubulin (porcine) (UniProt P02550); experiment: co-sedimentation
[2] = target: the molecule itself; experiment: SEC-MALS

Kd [1]: 17.4 µM
B1: SPR2(1 to 500)-GFP (domain or fragment)
chain: MSTPTTSGSAAKPTRPARSSSLATRSCSNSGSLTSFQAMVELKQKILTSISKLADRDTYQIAVEDLEKTIQSLTPETLPMFLNCLYDSCSDPKPAVKKECLHLLSYVCSLHCDSTAAHLTKIIAQIVKRLKDSDSGVRDACRDTIGALSGIYLKGKEEGTNTGSASLAVGLFVKPLFEAMGEQNKVVQSGASMCMARMVESAASPPVTSFQKLCPRICKLLSNSSFLAKASLLPVVSSLSQVGAIAPQSLESLLESIHDCLGSTDWVTRKAAAETLTALASHSSGLIKEKTDSTITVLETCRFDKIKPVRESVTEALQLWKKISGKYVDGASDDSKLSASEQLGSEKNGEKRSNLADLMKKEASDGSTLSPDSASKGKGCFPEKAVGLLKKKAPVLSDKDFNPEFFQRLERRQSVEVVVPRRCKNNDEEESGLDDLNAMGSSNRLKNTQADDKQVKGRFDGNGSQARTSGDDKAGVVNGKETPGHHAPVSNTDNQSEGSF

B2: full-length SPR2 (SEC-MALS sample) (natural protein, Arabidopsis thaliana, UniProt Q9T041 1-864, looked up)
chain: MSTPTTSGSAAKPTRPARSSSLATRSCSNSGSLTSFQAMVELKQKILTSISKLADRDTYQIAVEDLEKTIQSLTPETLPMFLNCLYDSCSDPKPAVKKECLHLLSYVCSLHCDSTAAHLTKIIAQIVKRLKDSDSGVRDACRDTIGALSGIYLKGKEEGTNTGSASLAVGLFVKPLFEAMGEQNKVVQSGASMCMARMVESAASPPVTSFQKLCPRICKLLSNSSFLAKASLLPVVSSLSQVGAIAPQSLESLLESIHDCLGSTDWVTRKAAAETLTALASHSSGLIKEKTDSTITVLETCRFDKIKPVRESVTEALQLWKKISGKYVDGASDDSKLSASEQLGSEKNGEKRSNLADLMKKEASDGSTLSPDSASKGKGCFPEKAVGLLKKKAPVLSDKDFNPEFFQRLERRQSVEVVVPRRCKNNDEEESGLDDLNAMGSSNRLKNTQADDKQVKGRFDGNGSQARTSGDDKAGVVNGKETPGHHAPVSNTDNQSEGSFTSNRGNWSAIQRQLLQLERQQTNLMNMLQEFIGGSHDSMVTLEGRVRGLERIVEDMARDLSISSGRRANLTAGFGKYNSFANYPTGKYNGRAPGERGSQTDGAMRGRMWNSDMADDWFIPPHAASRNGQAGPRRSPRSEQYENEHMGNGRRGWDNKASGTIRFGEGPSARSVWQASKDEATLEAIRVAGEDGAVPRPTRVAVAPEAEAMGDDDNEGQERDPIWVSWSNAMHSLRVGDIDAAYAEVLCAGDQHLVIKLMDKTGPSLDQMSNEIANEALNFISQFLLDHSLYDICLSWSQQLLELVLQDGADTFGVPMELKTEILYNLQDACSTMDPPEDWEGPAPEQLVVQLASVWEIDLQQFDK
stoichiometry N [2]: 4
